Source: PMC2923636 (Structure (London, England : 1993), 2009)

Molecular target: T1, AIRE-PHD1 P326L mutant (human, UniProt O43918 293-346, P326L)
T1 sequence (looked up): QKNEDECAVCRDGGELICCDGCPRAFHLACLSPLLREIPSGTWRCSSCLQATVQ
Experiment: NMR titration

## ARTKQTARKST (peptide, UniProt P68431 2-12, looked up) [unmodified histone H3 peptide (residues 1-11)]
  binding result: binds
